The results in this text go back to patent US10087225B2, “Formulation of MK2 inhibitor peptides” (MOERAE MATRIX, INC., priority 2015, dated 2018).

What all share (assay): Kinase Profiling Assay
What all share (type): biochemical

One assay addresses HIPK2(h) (Homo sapiens, UniProt Q9H2X6).
A further assay addresses MAPK1(h) (Homo sapiens, UniProt P27361).
The target in the next assay is T1, MST2(h) (Homo sapiens, UniProt Q13188).
T1 sequence (Q13188 1-491): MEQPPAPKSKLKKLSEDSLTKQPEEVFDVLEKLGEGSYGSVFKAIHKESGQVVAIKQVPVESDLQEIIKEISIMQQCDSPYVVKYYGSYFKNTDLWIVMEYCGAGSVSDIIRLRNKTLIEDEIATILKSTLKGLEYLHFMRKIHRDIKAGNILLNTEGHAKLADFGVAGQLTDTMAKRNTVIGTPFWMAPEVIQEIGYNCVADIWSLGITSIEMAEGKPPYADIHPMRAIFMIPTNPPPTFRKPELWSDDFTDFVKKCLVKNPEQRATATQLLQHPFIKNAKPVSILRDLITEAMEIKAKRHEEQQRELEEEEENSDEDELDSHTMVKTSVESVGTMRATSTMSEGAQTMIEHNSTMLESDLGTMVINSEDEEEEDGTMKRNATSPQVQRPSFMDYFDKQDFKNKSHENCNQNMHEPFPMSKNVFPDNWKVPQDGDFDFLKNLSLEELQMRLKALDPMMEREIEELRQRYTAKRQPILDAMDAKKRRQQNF

The target of a further assay is ACK1(h) (Homo sapiens, UniProt Q07912). The note with it: 100 μM.
ACK1(h), sequence (Q07912 whole entry): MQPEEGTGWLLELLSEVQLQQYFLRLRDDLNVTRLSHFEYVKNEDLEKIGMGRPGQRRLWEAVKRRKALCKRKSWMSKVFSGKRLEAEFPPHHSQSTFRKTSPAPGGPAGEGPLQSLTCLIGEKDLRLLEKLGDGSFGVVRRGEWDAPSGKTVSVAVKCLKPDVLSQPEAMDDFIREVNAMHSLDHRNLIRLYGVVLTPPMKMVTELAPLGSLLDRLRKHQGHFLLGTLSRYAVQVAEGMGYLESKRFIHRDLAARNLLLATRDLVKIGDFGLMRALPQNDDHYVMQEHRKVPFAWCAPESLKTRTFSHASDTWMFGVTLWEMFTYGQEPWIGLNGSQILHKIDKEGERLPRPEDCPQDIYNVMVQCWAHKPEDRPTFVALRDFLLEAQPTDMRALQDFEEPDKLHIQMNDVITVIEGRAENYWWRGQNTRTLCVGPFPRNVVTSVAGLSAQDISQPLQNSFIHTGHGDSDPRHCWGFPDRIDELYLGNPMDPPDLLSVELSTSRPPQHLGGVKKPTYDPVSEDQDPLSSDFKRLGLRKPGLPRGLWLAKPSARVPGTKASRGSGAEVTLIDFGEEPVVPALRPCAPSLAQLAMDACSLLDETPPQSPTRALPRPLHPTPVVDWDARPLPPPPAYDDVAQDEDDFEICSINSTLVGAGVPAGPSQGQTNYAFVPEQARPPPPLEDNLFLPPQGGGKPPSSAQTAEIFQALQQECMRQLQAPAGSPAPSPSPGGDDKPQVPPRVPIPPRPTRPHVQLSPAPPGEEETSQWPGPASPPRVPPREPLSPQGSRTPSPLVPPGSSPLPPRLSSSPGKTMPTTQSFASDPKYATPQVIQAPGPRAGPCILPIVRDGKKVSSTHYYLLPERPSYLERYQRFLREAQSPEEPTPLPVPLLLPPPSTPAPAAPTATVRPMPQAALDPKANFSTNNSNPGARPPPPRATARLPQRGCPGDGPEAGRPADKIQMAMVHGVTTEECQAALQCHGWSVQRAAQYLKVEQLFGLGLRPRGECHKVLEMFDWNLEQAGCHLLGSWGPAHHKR
In a further assay the target is CaMKIIγ(h) (Homo sapiens, UniProt Q13555). The note with it: 100 μM.
CaMKIIγ(h), sequence (Q13555 whole entry): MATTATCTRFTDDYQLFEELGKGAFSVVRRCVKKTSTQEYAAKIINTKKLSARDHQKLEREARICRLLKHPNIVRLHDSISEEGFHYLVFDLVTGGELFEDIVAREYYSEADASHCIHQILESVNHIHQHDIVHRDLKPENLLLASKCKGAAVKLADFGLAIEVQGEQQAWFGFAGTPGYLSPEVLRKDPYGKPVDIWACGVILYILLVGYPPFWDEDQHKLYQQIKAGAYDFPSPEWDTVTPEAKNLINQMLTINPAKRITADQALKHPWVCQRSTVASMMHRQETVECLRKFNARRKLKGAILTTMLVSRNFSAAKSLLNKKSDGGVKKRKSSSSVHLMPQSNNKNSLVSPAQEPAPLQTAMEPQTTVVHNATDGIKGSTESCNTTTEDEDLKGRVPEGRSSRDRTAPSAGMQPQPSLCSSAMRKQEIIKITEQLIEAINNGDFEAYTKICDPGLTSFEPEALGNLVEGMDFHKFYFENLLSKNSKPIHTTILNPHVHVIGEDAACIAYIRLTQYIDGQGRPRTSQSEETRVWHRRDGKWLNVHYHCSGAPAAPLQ
Another assay has as its target CDK6/cyclinD3(h) (Homo sapiens, UniProt Q00534). The note with it: 100 μM.
In a further assay the target is Fes(h) (Homo sapiens, UniProt P07332). The note with it: 100 μM.
The target in a further assay is FGFR2(h) (Homo sapiens, UniProt P21802). The conditions noted are these: 100 μM.
Another assay addresses FGFR4(h) (Homo sapiens, UniProt P22455). The conditions noted are these: 100 μM.
Another assay concerns the target Flt1(h) (Homo sapiens, UniProt P17948). The conditions noted are these: 100 μM.
A further assay addresses Hck(h) activated (Homo sapiens, UniProt P08631). The note with it: 100 μM.
The next assay deals with Lck(h) activated (Homo sapiens, UniProt P06239). The conditions noted are these: 100 μM.
Another assay addresses Met(M1268T)(h) (Homo sapiens, UniProt P08581, M1250T). The note with it: 100 μM.
Another assay deals with T2, MST1(h) (Homo sapiens, UniProt Q13043).
T2 sequence (Q13043 1-487): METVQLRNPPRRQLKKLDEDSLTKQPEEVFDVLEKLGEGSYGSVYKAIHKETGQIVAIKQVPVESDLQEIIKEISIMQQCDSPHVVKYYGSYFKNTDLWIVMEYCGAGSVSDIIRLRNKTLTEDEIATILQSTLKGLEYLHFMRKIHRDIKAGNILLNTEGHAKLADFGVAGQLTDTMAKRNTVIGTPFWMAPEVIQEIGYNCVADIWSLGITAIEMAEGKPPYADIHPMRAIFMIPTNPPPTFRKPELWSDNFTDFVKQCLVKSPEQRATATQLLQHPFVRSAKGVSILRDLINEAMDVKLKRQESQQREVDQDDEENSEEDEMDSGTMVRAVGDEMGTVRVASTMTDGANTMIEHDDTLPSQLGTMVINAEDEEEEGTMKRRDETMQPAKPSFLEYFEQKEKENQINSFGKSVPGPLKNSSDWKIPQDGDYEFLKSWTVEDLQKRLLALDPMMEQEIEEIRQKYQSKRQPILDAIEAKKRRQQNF
The conditions noted are these: 100 μM.

Another assay has as its target MST3(h) (Homo sapiens, UniProt Q9Y6E0). The note with it: 100 μM.
A further assay deals with mTOR(h) (Homo sapiens, UniProt P42345). The note with it: 100 μM.
The target of another assay is T3, PDK1(h) (Homo sapiens, UniProt O15530).
T3 sequence (O15530 1-556): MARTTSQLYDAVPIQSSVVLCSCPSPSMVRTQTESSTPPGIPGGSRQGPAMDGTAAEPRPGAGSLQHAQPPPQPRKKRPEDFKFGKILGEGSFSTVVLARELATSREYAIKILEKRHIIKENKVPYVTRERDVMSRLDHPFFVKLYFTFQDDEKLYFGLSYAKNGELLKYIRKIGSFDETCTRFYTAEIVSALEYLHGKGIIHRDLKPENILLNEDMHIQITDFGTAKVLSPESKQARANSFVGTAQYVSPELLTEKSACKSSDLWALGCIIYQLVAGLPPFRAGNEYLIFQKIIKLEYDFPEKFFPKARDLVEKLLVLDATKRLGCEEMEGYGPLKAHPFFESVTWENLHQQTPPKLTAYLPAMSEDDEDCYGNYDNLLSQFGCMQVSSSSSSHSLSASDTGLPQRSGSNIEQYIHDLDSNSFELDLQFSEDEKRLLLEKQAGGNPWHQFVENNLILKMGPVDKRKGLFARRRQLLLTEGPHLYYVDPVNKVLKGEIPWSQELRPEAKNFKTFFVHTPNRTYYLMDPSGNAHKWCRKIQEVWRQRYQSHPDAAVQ
The note with it: 100 μM.

In another assay the target is Pim-3(h) (Homo sapiens, UniProt Q86V86). The conditions noted are these: 100 μM.
For the next assay, the target named is Ret(V804L)(h) (Homo sapiens, UniProt P07949, V804L). The note with it: 100 μM.
A further assay deals with Ros(h) (Homo sapiens, UniProt P08922). The note with it: 100 μM.
In another assay the target is T4, Src(1-530)(h) (Homo sapiens, UniProt P12931).
T4 construct: Src(1-530)(h)
The conditions noted are these: 100 μM.

A further assay deals with TLK2(h) (Homo sapiens, UniProt Q86UE8). The note with it: 100 μM.

Hck(h) activated, sequence (P08631 whole entry): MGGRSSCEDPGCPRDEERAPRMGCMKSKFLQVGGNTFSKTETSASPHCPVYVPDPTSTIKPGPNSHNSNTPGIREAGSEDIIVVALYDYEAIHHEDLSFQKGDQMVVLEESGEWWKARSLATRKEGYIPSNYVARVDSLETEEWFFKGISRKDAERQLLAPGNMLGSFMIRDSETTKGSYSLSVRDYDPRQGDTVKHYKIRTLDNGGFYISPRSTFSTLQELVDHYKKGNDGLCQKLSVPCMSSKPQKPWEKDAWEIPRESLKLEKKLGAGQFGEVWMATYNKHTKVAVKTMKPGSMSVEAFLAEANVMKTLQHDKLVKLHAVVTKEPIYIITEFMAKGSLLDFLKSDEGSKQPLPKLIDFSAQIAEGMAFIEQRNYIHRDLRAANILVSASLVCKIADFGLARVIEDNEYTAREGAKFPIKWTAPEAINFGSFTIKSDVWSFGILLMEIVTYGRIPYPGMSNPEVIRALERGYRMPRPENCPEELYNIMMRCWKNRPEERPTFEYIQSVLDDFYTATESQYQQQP
CDK6/cyclinD3(h), sequence (Q00534 whole entry): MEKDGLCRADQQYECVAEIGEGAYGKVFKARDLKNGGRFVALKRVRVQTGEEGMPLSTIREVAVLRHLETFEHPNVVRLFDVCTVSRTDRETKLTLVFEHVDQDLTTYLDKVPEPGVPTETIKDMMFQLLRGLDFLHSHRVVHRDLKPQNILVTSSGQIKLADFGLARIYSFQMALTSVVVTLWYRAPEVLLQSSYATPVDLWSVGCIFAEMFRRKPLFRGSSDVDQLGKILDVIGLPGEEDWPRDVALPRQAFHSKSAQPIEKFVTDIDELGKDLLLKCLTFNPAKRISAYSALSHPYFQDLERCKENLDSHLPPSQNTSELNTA
CDK6/cyclinD3(h), sequence (P30281 whole entry partner): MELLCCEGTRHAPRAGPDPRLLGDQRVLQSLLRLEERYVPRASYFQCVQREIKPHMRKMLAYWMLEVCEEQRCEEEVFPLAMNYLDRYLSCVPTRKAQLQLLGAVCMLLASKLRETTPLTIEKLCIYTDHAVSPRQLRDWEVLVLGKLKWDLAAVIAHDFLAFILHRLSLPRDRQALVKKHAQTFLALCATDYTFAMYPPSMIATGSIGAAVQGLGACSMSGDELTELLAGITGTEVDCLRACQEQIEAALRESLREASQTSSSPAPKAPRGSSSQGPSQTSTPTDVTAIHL
MST3(h), sequence (Q9Y6E0 whole entry): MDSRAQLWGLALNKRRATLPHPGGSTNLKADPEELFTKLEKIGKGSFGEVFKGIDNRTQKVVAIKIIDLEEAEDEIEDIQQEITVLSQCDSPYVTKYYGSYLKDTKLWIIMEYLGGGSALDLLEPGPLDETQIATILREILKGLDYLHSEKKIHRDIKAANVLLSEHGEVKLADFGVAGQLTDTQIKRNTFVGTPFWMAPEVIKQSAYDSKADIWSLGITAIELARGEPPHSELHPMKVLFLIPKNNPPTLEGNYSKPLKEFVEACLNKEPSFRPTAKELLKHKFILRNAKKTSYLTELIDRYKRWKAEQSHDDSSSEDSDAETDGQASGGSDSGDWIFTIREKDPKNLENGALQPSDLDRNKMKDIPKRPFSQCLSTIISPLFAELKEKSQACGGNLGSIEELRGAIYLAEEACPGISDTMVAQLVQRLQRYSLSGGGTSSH
Flt1(h), sequence (P17948 27-1338): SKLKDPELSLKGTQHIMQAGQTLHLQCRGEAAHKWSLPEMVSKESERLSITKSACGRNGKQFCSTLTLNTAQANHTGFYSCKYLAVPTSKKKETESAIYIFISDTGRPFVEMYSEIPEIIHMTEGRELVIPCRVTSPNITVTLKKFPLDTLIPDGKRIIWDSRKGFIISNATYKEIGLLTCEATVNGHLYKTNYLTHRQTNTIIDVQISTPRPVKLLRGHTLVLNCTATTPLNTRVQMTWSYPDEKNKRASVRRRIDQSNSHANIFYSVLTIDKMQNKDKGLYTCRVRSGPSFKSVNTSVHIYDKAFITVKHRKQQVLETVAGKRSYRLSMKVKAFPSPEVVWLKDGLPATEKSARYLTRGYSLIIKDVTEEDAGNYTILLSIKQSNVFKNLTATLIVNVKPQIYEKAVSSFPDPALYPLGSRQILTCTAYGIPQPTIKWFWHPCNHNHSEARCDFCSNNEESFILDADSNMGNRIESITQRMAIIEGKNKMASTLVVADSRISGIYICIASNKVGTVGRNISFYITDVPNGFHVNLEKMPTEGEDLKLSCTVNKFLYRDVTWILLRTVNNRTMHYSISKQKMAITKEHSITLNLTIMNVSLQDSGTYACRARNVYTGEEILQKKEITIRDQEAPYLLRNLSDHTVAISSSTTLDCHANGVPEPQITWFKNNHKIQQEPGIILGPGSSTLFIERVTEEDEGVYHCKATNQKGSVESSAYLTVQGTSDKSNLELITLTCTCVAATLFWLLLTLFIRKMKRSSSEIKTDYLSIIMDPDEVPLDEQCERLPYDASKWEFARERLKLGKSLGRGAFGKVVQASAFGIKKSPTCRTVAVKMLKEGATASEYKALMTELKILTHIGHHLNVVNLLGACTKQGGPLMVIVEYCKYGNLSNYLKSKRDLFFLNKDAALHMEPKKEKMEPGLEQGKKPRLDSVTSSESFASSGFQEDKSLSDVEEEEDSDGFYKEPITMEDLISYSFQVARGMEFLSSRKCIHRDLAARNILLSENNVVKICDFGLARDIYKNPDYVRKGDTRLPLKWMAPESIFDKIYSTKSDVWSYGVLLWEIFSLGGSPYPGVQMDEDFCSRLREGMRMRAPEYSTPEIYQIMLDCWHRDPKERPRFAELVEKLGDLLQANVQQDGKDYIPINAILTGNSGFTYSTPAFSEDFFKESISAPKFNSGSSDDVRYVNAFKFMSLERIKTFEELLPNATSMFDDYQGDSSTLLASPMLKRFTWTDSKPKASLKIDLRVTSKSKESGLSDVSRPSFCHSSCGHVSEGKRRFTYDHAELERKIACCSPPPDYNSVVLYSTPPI

H-YARAAARQARAKALARQLGVAA-OH [MMI-0100]: the figures for the activity at 100 µM at HIPK2(h), at MAPK1(h) and at MST2(h) were 98%, 108% and 98%, respectively.
As for “HRRIKAWLKKIKALARQLGVAA (Mammalian) [MMI-0500]”, the “% activity” value with ACK1(h) was 64%; in the assay with CaMKIIγ(h), 3%; with CDK6/cyclinD3(h), 23%; with Fes(h) it was 23%; with FGFR2(h), 12%; with FGFR4(h) it was 3%. Moreover, the “% activity” value with Flt1(h) stood at 27%; with Hck(h) activated, 67%; with HIPK2(h) (100 μM), 38%; with Lck(h) activated it was 76%; with Met(M1268T)(h), 239%; in the assay with MST1(h), 3%. The “% activity” value in the assay with MST2(h) (100 μM) was 2%; in the assay with MST3(h), 4%; with mTOR(h), 135%; with PDK1(h) it was 178%; with Pim-3(h), 37%; in the assay with Ret(V804L)(h), 20%. Further, the results for the “% activity” value in the assay with Ros(h), with Src(1-530)(h) and with TLK2(h) were 150%, 21% and 133%, respectively.
In the case of “YARAAARQARAKALNRQLGVA (Mammalian) [MMI-0200]”, the “% activity” value with ACK1(h) amounted to 97%; in the assay with CaMKIIγ(h), 94%; in the assay with CDK6/cyclinD3(h), 100%; in the assay with Fes(h) it was 74%; with FGFR2(h) it was 73%; with FGFR4(h), 75%. For the same substance, the “% activity” value with Flt1(h) worked out at 96%; in the assay with Hck(h) activated it was 100%; with Lck(h) activated it was 90%; in the assay with MAPK1(h) (100 μM), 97%; in the assay with Met(M1268T)(h), 143%; in the assay with MST1(h), 72%. In addition, the “% activity” value was 95% with MST3(h); 110% with mTOR(h); 143% with PDK1(h); 94% with Pim-3(h); 100% with Ret(V804L)(h); 86% with Ros(h). Besides, the “% activity” value with Src(1-530)(h) was 75%; with TLK2(h) it was 129%.
